Experimental data: patent US12630600B2 (MEDIMMUNE LIMITED, priority 2022, dated 2026)
Starred links: 1 amine or outer side, 2 acyl side, 3 side chain; linkers in the order of their positions; H or OH if unused. Non-standard residues stand in square brackets, D forms with d. Groups on a side chain read outwards from the residue. No end group written: not given here. *: point of attachment. C18 diacid = O=C(O)CCCCCCCCCCCCCCCCC(=O)*; γGlu = O=C(O)[C@H](CCC(=O)[*:2])N[*:1]; αMeF = C[C@](N)(Cc1ccccc1)C(=O)O; AEEA = NCCOCCOCC(=O)O; Aib = CC(C)(N)C(=O)O

How the values were obtained:
[1] = molecular target: human glucagon receptor (human, UniProt P47871); experiment: cell-based or functional assay
[2] = molecular target: human GLP-1 receptor (human, UniProt P43220); experiment: cell-based or functional assay

cAMP production EC50 [1]	cAMP production EC50 [2]	Binder
0.0105 nM	0.0331 nM	H[Aib]QGTFTSDVSK[αMeF]LDTK([AEEA-AEEA-γGlu-γGlu-C18 diacid])RARDFVQWLLE[Aib]G-NH2 (N-terminus assumed; SMILES CC(C)C[C@H](NC(=O)[C@H](Cc1c[nH]c2ccccc12)NC(=O)[C@H](CCC(N)=O)NC(=O)[C@@H](NC(=O)[C@H](Cc1ccccc1)NC(=O)[C@H](CC(=O)O)NC(=O)[C@H](CCCNC(=N)N)NC(=O)[C@H](C)NC(=O)[C@H](CCCNC(=N)N)NC(=O)[C@H](CCCCNC(=O)COCCOCCNC(=O)COCCOCCNC(=O)CC[C@H](NC(=O)CC[C@H](NC(=O)CCCCCCCCCCCCCCCCC(=O)O)C(=O)O)C(=O)O)NC(=O)[C@@H](NC(=O)[C@H](CC(=O)O)NC(=O)[C@H](CC(C)C)NC(=O)[C@](C)(Cc1ccccc1)NC(=O)[C@H](CCCCN)NC(=O)[C@H](CO)NC(=O)[C@@H](NC(=O)[C@H](CC(=O)O)NC(=O)[C@H](CO)NC(=O)[C@@H](NC(=O)[C@H](Cc1ccccc1)NC(=O)[C@@H](NC(=O)CNC(=O)[C@H](CCC(N)=O)NC(=O)C(C)(C)NC(=O)[C@@H](N)Cc1c[nH]cn1)[C@@H](C)O)[C@@H](C)O)C(C)C)[C@@H](C)O)C(C)C)C(=O)N[C@@H](CC(C)C)C(=O)N[C@@H](CCC(=O)O)C(=O)NC(C)(C)C(=O)NCC(N)=O) [Peptide 428]
0.0472 nM	0.0124 nM	H[Aib]QGTFTSDVSK[αMeF]LDTK([AEEA-AEEA-γGlu-C18 diacid])RARDFVQWLLE[Aib]G-NH2 (N-terminus assumed; SMILES CC(C)C[C@H](NC(=O)[C@H](Cc1c[nH]c2ccccc12)NC(=O)[C@H](CCC(N)=O)NC(=O)[C@@H](NC(=O)[C@H](Cc1ccccc1)NC(=O)[C@H](CC(=O)O)NC(=O)[C@H](CCCNC(=N)N)NC(=O)[C@H](C)NC(=O)[C@H](CCCNC(=N)N)NC(=O)[C@H](CCCCNC(=O)COCCOCCNC(=O)COCCOCCNC(=O)CC[C@H](NC(=O)CCCCCCCCCCCCCCCCC(=O)O)C(=O)O)NC(=O)[C@@H](NC(=O)[C@H](CC(=O)O)NC(=O)[C@H](CC(C)C)NC(=O)[C@](C)(Cc1ccccc1)NC(=O)[C@H](CCCCN)NC(=O)[C@H](CO)NC(=O)[C@@H](NC(=O)[C@H](CC(=O)O)NC(=O)[C@H](CO)NC(=O)[C@@H](NC(=O)[C@H](Cc1ccccc1)NC(=O)[C@@H](NC(=O)CNC(=O)[C@H](CCC(N)=O)NC(=O)C(C)(C)NC(=O)[C@@H](N)Cc1c[nH]cn1)[C@@H](C)O)[C@@H](C)O)C(C)C)[C@@H](C)O)C(C)C)C(=O)N[C@@H](CC(C)C)C(=O)N[C@@H](CCC(=O)O)C(=O)NC(C)(C)C(=O)NCC(N)=O) [Peptide 427]
0.0612 nM	0.0073 nM	H[Aib]QGTFTSDVSK[αMeF]LDKK([AEEA-AEEA-γGlu-C18 diacid])RAQDFVRWLLR[Aib]K-OH (N-terminus assumed; SMILES CC(C)C[C@H](NC(=O)[C@H](Cc1c[nH]c2ccccc12)NC(=O)[C@H](CCCNC(=N)N)NC(=O)[C@@H](NC(=O)[C@H](Cc1ccccc1)NC(=O)[C@H](CC(=O)O)NC(=O)[C@H](CCC(N)=O)NC(=O)[C@H](C)NC(=O)[C@H](CCCNC(=N)N)NC(=O)[C@H](CCCCNC(=O)COCCOCCNC(=O)COCCOCCNC(=O)CC[C@H](NC(=O)CCCCCCCCCCCCCCCCC(=O)O)C(=O)O)NC(=O)[C@H](CCCCN)NC(=O)[C@H](CC(=O)O)NC(=O)[C@H](CC(C)C)NC(=O)[C@](C)(Cc1ccccc1)NC(=O)[C@H](CCCCN)NC(=O)[C@H](CO)NC(=O)[C@@H](NC(=O)[C@H](CC(=O)O)NC(=O)[C@H](CO)NC(=O)[C@@H](NC(=O)[C@H](Cc1ccccc1)NC(=O)[C@@H](NC(=O)CNC(=O)[C@H](CCC(N)=O)NC(=O)C(C)(C)NC(=O)[C@@H](N)Cc1c[nH]cn1)[C@@H](C)O)[C@@H](C)O)C(C)C)C(C)C)C(=O)N[C@@H](CC(C)C)C(=O)N[C@@H](CCCNC(=N)N)C(=O)NC(C)(C)C(=O)N[C@@H](CCCCN)C(=O)O) [Peptide 426]

Continued, binder first:

Binder	cAMP production EC50 [1]	cAMP production EC50 [2]
H[Aib]QGTFTSDVSK[αMeF]LDRK([AEEA-AEEA-γGlu-C18 diacid])RAQDFVRWLL[Aib]TE-NH2 (N-terminus assumed; SMILES CC(C)C[C@H](NC(=O)[C@H](Cc1c[nH]c2ccccc12)NC(=O)[C@H](CCCNC(=N)N)NC(=O)[C@@H](NC(=O)[C@H](Cc1ccccc1)NC(=O)[C@H](CC(=O)O)NC(=O)[C@H](CCC(N)=O)NC(=O)[C@H](C)NC(=O)[C@H](CCCNC(=N)N)NC(=O)[C@H](CCCCNC(=O)COCCOCCNC(=O)COCCOCCNC(=O)CC[C@H](NC(=O)CCCCCCCCCCCCCCCCC(=O)O)C(=O)O)NC(=O)[C@H](CCCNC(=N)N)NC(=O)[C@H](CC(=O)O)NC(=O)[C@H](CC(C)C)NC(=O)[C@](C)(Cc1ccccc1)NC(=O)[C@H](CCCCN)NC(=O)[C@H](CO)NC(=O)[C@@H](NC(=O)[C@H](CC(=O)O)NC(=O)[C@H](CO)NC(=O)[C@@H](NC(=O)[C@H](Cc1ccccc1)NC(=O)[C@@H](NC(=O)CNC(=O)[C@H](CCC(N)=O)NC(=O)C(C)(C)NC(=O)[C@@H](N)Cc1c[nH]cn1)[C@@H](C)O)[C@@H](C)O)C(C)C)C(C)C)C(=O)N[C@@H](CC(C)C)C(=O)NC(C)(C)C(=O)N[C@H](C(=O)N[C@@H](CCC(=O)O)C(N)=O)[C@@H](C)O) [Peptide 422]	0.123 nM	0.0276 nM
H[Aib]QGTFTSDVSK[αMeF]LDKK([AEEA-AEEA-γGlu-C18 diacid])RAQDFVRWLKA[Aib]G-OH (N-terminus assumed; SMILES CC(C)C[C@H](NC(=O)[C@H](Cc1c[nH]c2ccccc12)NC(=O)[C@H](CCCNC(=N)N)NC(=O)[C@@H](NC(=O)[C@H](Cc1ccccc1)NC(=O)[C@H](CC(=O)O)NC(=O)[C@H](CCC(N)=O)NC(=O)[C@H](C)NC(=O)[C@H](CCCNC(=N)N)NC(=O)[C@H](CCCCNC(=O)COCCOCCNC(=O)COCCOCCNC(=O)CC[C@H](NC(=O)CCCCCCCCCCCCCCCCC(=O)O)C(=O)O)NC(=O)[C@H](CCCCN)NC(=O)[C@H](CC(=O)O)NC(=O)[C@H](CC(C)C)NC(=O)[C@](C)(Cc1ccccc1)NC(=O)[C@H](CCCCN)NC(=O)[C@H](CO)NC(=O)[C@@H](NC(=O)[C@H](CC(=O)O)NC(=O)[C@H](CO)NC(=O)[C@@H](NC(=O)[C@H](Cc1ccccc1)NC(=O)[C@@H](NC(=O)CNC(=O)[C@H](CCC(N)=O)NC(=O)C(C)(C)NC(=O)[C@@H](N)Cc1c[nH]cn1)[C@@H](C)O)[C@@H](C)O)C(C)C)C(C)C)C(=O)N[C@@H](CCCCN)C(=O)N[C@@H](C)C(=O)NC(C)(C)C(=O)NCC(=O)O) [Peptide 425]	0.827 nM	0.0115 nM
H[Aib]QGTFTSDVSK[αMeF]LDKK([AEEA-AEEA-γGlu-C18 diacid])RAQDFVRWLL[Aib]TK-OH (N-terminus assumed; SMILES CC(C)C[C@H](NC(=O)[C@H](Cc1c[nH]c2ccccc12)NC(=O)[C@H](CCCNC(=N)N)NC(=O)[C@@H](NC(=O)[C@H](Cc1ccccc1)NC(=O)[C@H](CC(=O)O)NC(=O)[C@H](CCC(N)=O)NC(=O)[C@H](C)NC(=O)[C@H](CCCNC(=N)N)NC(=O)[C@H](CCCCNC(=O)COCCOCCNC(=O)COCCOCCNC(=O)CC[C@H](NC(=O)CCCCCCCCCCCCCCCCC(=O)O)C(=O)O)NC(=O)[C@H](CCCCN)NC(=O)[C@H](CC(=O)O)NC(=O)[C@H](CC(C)C)NC(=O)[C@](C)(Cc1ccccc1)NC(=O)[C@H](CCCCN)NC(=O)[C@H](CO)NC(=O)[C@@H](NC(=O)[C@H](CC(=O)O)NC(=O)[C@H](CO)NC(=O)[C@@H](NC(=O)[C@H](Cc1ccccc1)NC(=O)[C@@H](NC(=O)CNC(=O)[C@H](CCC(N)=O)NC(=O)C(C)(C)NC(=O)[C@@H](N)Cc1c[nH]cn1)[C@@H](C)O)[C@@H](C)O)C(C)C)C(C)C)C(=O)N[C@@H](CC(C)C)C(=O)NC(C)(C)C(=O)N[C@H](C(=O)N[C@@H](CCCCN)C(=O)O)[C@@H](C)O) [Peptide 424]	0.129 nM	0.0155 nM
H[Aib]QGTFTSDVSK[αMeF]LDKK([AEEA-AEEA-γGlu-C18 diacid])RAQDFVRWLK[Aib]TE-OH (N-terminus assumed; SMILES CC(C)C[C@H](NC(=O)[C@H](Cc1c[nH]c2ccccc12)NC(=O)[C@H](CCCNC(=N)N)NC(=O)[C@@H](NC(=O)[C@H](Cc1ccccc1)NC(=O)[C@H](CC(=O)O)NC(=O)[C@H](CCC(N)=O)NC(=O)[C@H](C)NC(=O)[C@H](CCCNC(=N)N)NC(=O)[C@H](CCCCNC(=O)COCCOCCNC(=O)COCCOCCNC(=O)CC[C@H](NC(=O)CCCCCCCCCCCCCCCCC(=O)O)C(=O)O)NC(=O)[C@H](CCCCN)NC(=O)[C@H](CC(=O)O)NC(=O)[C@H](CC(C)C)NC(=O)[C@](C)(Cc1ccccc1)NC(=O)[C@H](CCCCN)NC(=O)[C@H](CO)NC(=O)[C@@H](NC(=O)[C@H](CC(=O)O)NC(=O)[C@H](CO)NC(=O)[C@@H](NC(=O)[C@H](Cc1ccccc1)NC(=O)[C@@H](NC(=O)CNC(=O)[C@H](CCC(N)=O)NC(=O)C(C)(C)NC(=O)[C@@H](N)Cc1c[nH]cn1)[C@@H](C)O)[C@@H](C)O)C(C)C)C(C)C)C(=O)N[C@@H](CCCCN)C(=O)NC(C)(C)C(=O)N[C@H](C(=O)N[C@@H](CCC(=O)O)C(=O)O)[C@@H](C)O) [Peptide 423]	2.22 nM	0.0261 nM
